This test deals with T1, hTie2-His (human, UniProt Q02763 23-745).
T1 construct: also called ecto-Tie2 fused to 6xHis; biotin-Tie2-His
Briefly: SPR Biacore 37C, mAb captured. The procedure: (Tables 3-6). Measurements were conducted on a Biacore 2000 or T200 instrument.
For antibodies with a mouse constant region (designated H1M or H2M), antibodies were immobilized onto an anti-mouse Fc sensor surface and different concentrations of human, mouse or rat Tie2 constructs (hTie2-His, mTie2-hFc and rTie2-hFc) were injected over the antibody captured surface. For antibodies in the human IgG format (designated H1H or H4H), either an anti-human Fc sensor surface (hTie2-His and hTie2-mFc) or anti-human Fab sensor surface (mTie2-hFc and rTie2-hFc) was employed depending on the Tie-2 construct applied to the antibody captured surface. Amino acid sequences of the constructs used in this Example are as follows: hTie2-His (SEQ ID NO:2); hTie2-hFc (SEQ ID NO:3); hTie2-mFc (SEQ ID NO:4); rTie2-hFc (SEQ ID NO:5); and mTie2-hFc (SEQ ID NO:6).
Kinetic rate constants—association rate (ka) and dissociation rate (kd) were determined by fitting the real time binding sensorgrams to a 1:1 binding model with mass transport limitation using Scrubber 2.0 curve fitting software. The equilibrium dissociation constant (KD) and dissociative half-life (T½) were calculated from the kinetic rate constants as: KD (M)=kd/ka; and T½ (min)=(In2/(60*kd).).
On the technique in general: SPR reads the build-up and loss of mass on a sensor chip optically.

The record followed here is patent US20170174789A1 (Regeneron, published 2017).

B1: H1H2340B (antibody, V domains shown)
VH: EVQLVESGGGLVQPGGSLRLSCAASGFTFSRYWMSWVRQAPGMGLEWVANIKQDGSEKNYVDSVKGRFTVSRDNAKNSLYLQMNSLRAEDTAVYYCASAIFGVVITSYWGQGTLVTVSS
VL: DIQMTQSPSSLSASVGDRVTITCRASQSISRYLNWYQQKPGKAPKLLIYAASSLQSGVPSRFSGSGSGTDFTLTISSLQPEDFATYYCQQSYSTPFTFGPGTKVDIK
notes: Tested as H1H2340B (human IgG format, H1H prefix); also called HIH2340B
B1: binding was characterised by a dissociation constant (Kd) of 102 nM, the “T½” value is 1 min, the dissociation rate constant (koff) is 0.00998 s⁻¹ and the kon turned out to be 97500 M⁻¹ s⁻¹.

B2: H1H2339B (antibody, V domains shown)
VH: EVQLVESGGGLVQPGGSLRLSCAASGFTFSSYAMNWVRQAPGKGLEWVSSISGSGGNTYYADSVKGRFTISRDNSKNTLYLQLNSLRAEDTAVYYCAKDHSLSWYRNVFDIWGQGTMVTVSS
VL: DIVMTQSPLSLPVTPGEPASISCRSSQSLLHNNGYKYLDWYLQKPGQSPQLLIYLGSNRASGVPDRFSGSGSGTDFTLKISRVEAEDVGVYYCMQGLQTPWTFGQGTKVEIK
notes: Tested as H1H2339B (human IgG format, H1H prefix)
Consider B2, for which the Kd stood at 72 nM, the “T½” value turned out to be 2 min, the koff came out at 0.00488 s⁻¹ and the on-rate constant (kon) was determined as 67800 M⁻¹ s⁻¹.

One may read the Kd as the equilibrium constant for the complex coming apart. Lower therefore signals tighter binding. As usually defined, the koff is the first-order rate constant of dissociation. Usually kon stands for the second-order rate constant of association. A low value points to slow association.
